This note sets out measurements from publication PMC4859805, “Molecular mechanism of activation-triggered subunit exchange in Ca^2+/calmodulin-dependent protein kinase II” (eLife, 2016).

“And” between values parts separate entries of the source, which are not always exact repeats. Identical values can stand only once. Square brackets hold non-standard residues; d marks the D form. Ends that are not written are not given here. pT = C[C@@H](OP(=O)(O)O)[C@H](N)C(=O)O

Broadly, the stoichiometry N is the number of molecules, sites or subunits per partner or assembly. By IC50 is commonly meant the point on the concentration scale where inhibition reaches its midpoint. High values mean weaker potency in that assay, low ones greater potency in that assay.

Sequences and labels used below:
B5: human CaMKII-α hub domain (domain or fragment, UniProt Q9UQM7 345-475, looked up)
chain: VRKQEIIKVTEQLIEAISNGDFESYTKMCDPGMTAFEPEALGNLVEGLDFHRFYFENLWSRNSKPVHTTILNPHIHLMGDESACIAYIRITQYLDAGGIPRTAQSEETRVWHRRDGKWQIVHFHRSGAPSV
notes: Ca2+/calmodulin-dependent protein kinase II alpha, human, hub domain; residues 345-475 are stated for the crystallization construct; The limits are stated only for the crystallization construct; also called the hub; isolated hub; source: E. coli BL21, purified (Ni-NTA, Q-FF, Superose 6); not shown: His6, N-terminal, cleaved; copies: 12 or 14

Data set [1] concerns the target T1, human CaMKII-α hub (Homo sapiens, UniProt Q9UQM7).
T1 construct: human CaMKII-α hub consisted of residues 345–475 (UNIPROT id: Q9UQM7); 6-histidine tag with PreScission protease site (N, cleaved yes); made in house; host or cells: E. coli BL21
T1 sequence (Q9UQM7 345-475): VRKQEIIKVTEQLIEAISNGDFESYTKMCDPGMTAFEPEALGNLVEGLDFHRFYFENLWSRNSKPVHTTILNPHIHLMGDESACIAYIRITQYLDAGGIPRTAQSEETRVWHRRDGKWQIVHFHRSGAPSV
In words: Fluorescence polarization, direct titration of hub to BODIPY-labeled peptide. The settings on record: 2 nM Bodipy-FL-labeled peptide, hub 0-1000 μM, 25 mM Tris pH 8.0; non-saturable binding at high hub concentrations, value not relied on; read-out: KD derived from direct titration of the hub to the labeled peptide. From the text:
To analyze the mechanism of subunit exchange, we focused initially on potential interactions between the CaM-binding element and the hub. We had shown previously that mutation of the CaM-binding element blocks subunit exchange, and that phosphorylation of Thr 305 and Thr 306 in the CaM-binding element potentiates exchange ([Stratton et al., 2014]). We prepared both phosphorylated and unphosphorylated forms of peptides spanning the CaM-binding element of CaMKII-α (see Materials and methods). The peptides were labeled with a fluorophore (Bodipy-FL maleimide) at the C-terminal end, and binding was monitored by changes in fluorescence polarization (Figure 3A). To a fixed volume of labeled peptide (2 nM), increasing concentrations of the hub was added, and the change in fluorescence polarization was monitored (Figure 3B). […]
(§1) The fluorescence polarization binding experiments were initiated by adding 15 μL of 2 nM BODIPY labeled peptides (buffer: 25 mM Tris at pH 8.0) to 15 μL of different concentrations of the human CaMKII-α hub domain (ranging from 0–1000 μM in 25 mM Tris at pH 8.0, 150 mM KCl, 10% glycerol and 0.02% Tween). […] The fluorescence polarization was read from 20 μL of these reaction mixtures in opaque black 96-well plates using a Synergy H4 hybrid microplate reader with a 485/20 nm excitation filter, and a 528/20 nm emission filter. […]
In general terms: Polarisation of emitted light reports the rotation of a fluorescent probe.

For data set [2], the target named is hub-△kinase (hub, linker and autoinhibitory segment of human CaMKII-α, without the kinase domain) (human). In words: SEC; analytical gel filtration, Superose 6 10/300, 25 mM Tris pH 8.0, 150 mM KCl, 10% glycerol, 1 mM TCEP or 2 mM DTT; injection at 700 nM subunits; tryptophan fluorescence. In general terms: SEC sorts molecules by how far they enter the pores of the column.

Data set [3] deals with S. rosetta CaMKII holoenzyme, full length, wild type (Salpingoeca rosetta). In words: native MS; full-length S. rosetta CaMKII at 12 μM; 1 M ammonium acetate pH 7.2.
Data set [4] shares this target. In words: SEC; analytical gel filtration, Superose 6 10/300, 25 mM Tris pH 8.0, 150 mM KCl, 10% glycerol, 1 mM TCEP or 2 mM DTT; injection at 700 nM subunits; tryptophan fluorescence.
The target is the same in data set [5]. In words: native MS; full-length S. rosetta CaMKII at 3 μM; 1 M ammonium acetate pH 7.2.
The target is the same in data set [6]. In words: native MS; full-length S. rosetta CaMKII at 48 μM; 1 M ammonium acetate pH 7.2.
Data set [7] addresses N. vectensis CaMKII-B hub domain (Nematostella vectensis). In words: crystal structure; N. vectensis CaMKII-B hub; 2.5 M sodium chloride, 0.1 M acetate pH 4.2, 0.25 M lithium sulphate.
The target in data set [8] is T1, human CaMKII-α hub. In words: Fluorescence polarization competition assay with unlabeled peptides. It counts as binding. The protocol:
For the competition experiments, 2 nM of various labeled peptides were bound to 30 μM of the hub, resulting in high fluorescence polarization. Upon titration with the corresponding unlabeled versions of the peptides, the labeled peptides were competed off, and the fluorescence polarization decreased to the baseline value (Figure 3C–E). The value of the inhibition constant, IC50, is ~100 μM for the unlabeled peptides, whether phosphorylated or not. […]
as §1, with “filter. Error bars are calculated from the standard error of mean between replicates of experiments.” for “filter.”
where, A is the observed fluorescence polarization (FP) value, Af is the FP value for free labeled ligand, A0 is the FP value in the absence of unlabeled ligand, KD is the dissociation constant, [P]tot is the total protein concentration, and [L]tot is the total concentration of the unlabeled ligand. […]

Data set [9] concerns the target S. rosetta CaMKII hub domain (Salpingoeca rosetta). In words: SEC-MALS; S. rosetta hub at ∼3.2 mg/ml (~200 μM) on Superdex 200 10/300; 25 mM Tris pH 8.0, 150 mM KCl, 1 mM TCEP, 10% glycerol; 25°C.
For data set [10], the target named is N. vectensis CaMKII-A hub domain (Nematostella vectensis). In words: crystal structure; N. vectensis CaMKII-A hub; 0.2 M potassium thiocyanate, 20% w/v PEG 3350, pH 7.0.
The target of data set [11] is B5. In words: fluorescence polarisation; competition: 2 nM BODIPY labelled peptide bound to 30 μM hub, unlabeled peptide 0-500 μM added; KD from a non-linear fit assuming one peptide site per subunit and equal KD of labelled and unlabeled peptide. The settings on record: both partners purified.
Data set [12] concerns the molecule itself. In words: crystal structure; human CaMKII-α hub with uncleaved tag; 35% (v/v) MPD, 0.1 M HEPES pH 7.3.
Data set [13] concerns the molecule itself. In words: native MS; human hub; nanoelectrospray Q-TOF, 1 M ammonium acetate pH 7.2; CID MS/MS at 30 V collision energy.
Data set [14] concerns the molecule itself. In words: native MS; F397A hub: 200 μM in 1 M ammonium acetate; 2 μM in 25 mM Tris, 1 mM TCEP, pH 8; 250 mM ammonium acetate, 25 mM Tris, 1 mM TCEP, pH 8; oligomer identity confirmed by CID.
Data set [15] concerns the molecule itself. In words: SEC; analytical gel filtration, Superose 6 10/300; elevated injection concentration of 3–5 μM; reinjection of the dodecamer/tetradecamer peak of the holoenzyme; pre-incubation with Mg2+-ATP for the holoenzyme.

Regarding RRKLKGAILTTMLATRC [peptide A], the Kd at human CaMKII-α hub [1] was approximately 100 µM.
In [2], “hub-△kinase (hub, linker and autoinhibitory segment of human CaMKII-α, without the kinase domain) (domain or fragment)” came in with a percent of the sample in the dimer peak of 35%, a percent of the sample in the dodecamer/tetradecamer peak of 65% and a stoichiometry N of 2.
In the case of “S. rosetta CaMKII holoenzyme, full length, wild type”, the stoichiometry N in [3] was 4 and 6; in data set [4], 2; in data set [5] it was 2 and 4; in [6] it was 4 and 6 and 8.
“N. vectensis CaMKII-B hub domain (domain or fragment)” registered a stoichiometry N in data set [7] of 14.
For “LKEFNAERKLEGAILTTMLA [Peptide G, triple mutant of the residues 290-309 peptide, three positively charged residues replaced by Glu]”, the “Ability to compete the binding of the labeled peptide” value at human CaMKII-α hub [8] (hub bound to labeled peptide A, competition with unlabeled mutant peptides (Figure 3F)) is “fails to compete”.
For “S. rosetta CaMKII hub domain (domain or fragment)”, the stoichiometry N in data set [9] was determined as 4.
Molecule “N. vectensis CaMKII-A hub domain (domain or fragment)” displayed a stoichiometry N in [10] of 14.
`CC[C@H](C)[C@H](NC(=O)[C@H](C)NC(=O)CNC(=O)[C@H](CCCCN)NC(=O)[C@H](CC(C)C)NC(=O)[C@H](CCCCN)NC(=O)[C@H](CCCNC(=N)N)NC(=O)[C@H](CCCNC(=N)N)NC(=O)[C@H](C)NC(=O)[C@H](CC(N)=O)NC(=O)[C@H](Cc1ccccc1)NC(=O)[C@H](CCCCN)NC(=O)[C@H](CCCCN)NC(=O)[C@@H](N)CC(C)C)C(=O)N[C@@H](CC(C)C)C(=O)N[C@H](C(=O)N[C@H](C(=O)N[C@@H](CCSC)C(=O)N[C@@H](CC(C)C)C(=O)N[C@@H](C)C(=O)N[C@@H](CS)C(=O)O)[C@@H](C)OP(=O)(O)O)[C@@H](C)O` [peptide D]: on human CaMKII-α hub [8] (2 nM labeled peptide bound to 30 μM hub, competed with unlabeled peptide 0-500 μM, 25 mM Tris pH 8.0, non-linear least squares fit, one peptide-binding site per subunit, labeled peptide A used for peptide B, read-out: KD from competition experiments), the Kd amounted to 52 µM.

B1: Peptide C, unlabeled (human CaMKII-α 290-309 plus C-terminal cysteine, phosphorylated on Thr 305) (peptide)
peptide: LKKFNARRKLKGAIL[pT]TMLAC
notes: human CaMKII-α, residues 290-309; added C-terminal cysteine; also called peptide phosphorylated on Thr 305; source: synthetic peptide, bought: Elim Biopharm, HPLC purified
In data set [11], B1 came in with an IC50 of approximately 100 µM and a Kd of approximately 60 µM.

B2: human CaMKII-α hub, crystallization construct with uncleaved expression tag (domain or fragment)
chain: GSSHHHHHHSSGLEVLFQGPHMVRKQEIIKVTEQLIEAISNGDFESYTKMCDPGMTAFEPEALGNLVEGLDFHRFYFENLWSRNSKPVHTTILNPHIHLMGDESACIAYIRITQYLDAGGIPRTAQSEETRVWHRRDGKWQIVHFHRSGAPSV
notes: uncleaved N-terminal expression tag: hexahistidine followed by a PreScission protease cleavage site; written as a part because it docks on the hub; Ca2+/calmodulin-dependent protein kinase II alpha, human, hub domain, residues 345-475; The 22-residue tag was left uncleaved for crystallization; also called dodecameric human CaMKII-α hub; source: E. coli BL21, purified (Ni-NTA, Q-FF, Superose 6, …)
For B2, the “stoichiometry N” value in data set [12] came out at 12.

B3: Peptide D, unlabeled (human CaMKII-α 290-309 plus C-terminal cysteine, phosphorylated on Thr 306) (peptide)
peptide: LKKFNARRKLKGAILT[pT]MLAC
notes: human CaMKII-α, residues 290-309; added C-terminal cysteine; also called peptide phosphorylated on Thr 306; source: synthetic peptide, bought: Elim Biopharm, HPLC purified
In data set [11], B3 displayed an IC50 of approximately 100 µM and a Kd of approximately 50 µM.

B4: Peptide B (human CaMKII-α 290-309, unphosphorylated, unlabeled) (peptide)
peptide: LKKFNARRKLKGAILTTMLA
notes: also called the unphosphorylated peptide; wild type peptide; source: synthetic peptide, gift of Leta Nutt (St. Jude Children's Research Hospital), HPLC purified
With B4, in data set [11], the IC50 was approximately 100 µM and the Kd was approximately 90 µM.
Regarding B5, the “stoichiometry N” value in [13] was 12 and 14.

B6: human CaMKII-α hub domain F397A (domain or fragment, UniProt Q9UQM7 345-475, looked up)
chain: VRKQEIIKVTEQLIEAISNGDFESYTKMCDPGMTAFEPEALGNLVEGLDFHRAYFENLWSRNSKPVHTTILNPHIHLMGDESACIAYIRITQYLDAGGIPRTAQSEETRVWHRRDGKWQIVHFHRSGAPSV
notes: Ca2+/calmodulin-dependent protein kinase II alpha, human, hub domain; residues 345-475 are stated for the crystallization construct of the wild type; residue number according to PDB 1HKX; also called F397A mutant hub; mutant hub; source: E. coli BL21, purified; not shown: His6, N-terminal, cleaved
Take B6: the “stoichiometry N” value was determined as 14 in data set [14] and 2 in data set [15].
